For this assay, the target named is human IL2Rα (human) (UniProt P01589). In words: SPR, IL2Rα captured on Protein A chip, IL2 at 100 nM. A general note: In SPR one partner is held on a chip, and binding of the other changes the refractive index at the surface.
Sequence of human IL2Rα (human) (P01589 22-213 limits assumed): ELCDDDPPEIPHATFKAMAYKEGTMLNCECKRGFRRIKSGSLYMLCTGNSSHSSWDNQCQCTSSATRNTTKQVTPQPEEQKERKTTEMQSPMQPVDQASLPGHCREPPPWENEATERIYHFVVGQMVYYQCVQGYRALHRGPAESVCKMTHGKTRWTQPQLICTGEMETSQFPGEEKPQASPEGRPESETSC

B1: EP225 (ligand)
chain: APTSSSTKKTQLQLEHLLLDLQMILNGINNYKNPKLTRMLTAKFYMPKKATELKHLQCLEEELKPLEEVLNLAQSKNFHLTARDAVDNMRVIIQELKGSETTFMCEYADETATIVEFLNRWITFSQSIISTLTGSHHHHHH
On to B1, for which the RU (at 100 nM) turned out to be 7.4 RU and the Relevant binding to WT IL2 (%) amounted to 5.21%.
